Results on 7 molecules are retold here after paper PMC9177701, “Taf2 mediates DNA binding of Taf14” (Nature Communications, 2022).

Ends that are not written are not given here. * marks the point of attachment. Crotonyl(E) = C/C=C/C(=O)*

In data set [1] the target is FAM-labeled Taf2CT peptide (S. cerevisiae) (UniProt P23255). The data set can be described thus: MST; FAM-labeled Taf2CT peptide kept at 20 nM, Taf14ET varied; 20 mM Tris-HCl pH 7.5, 150 mM NaCl, 0–0.2 mM TCEP; Monolith NT.115; n = 3.
For data set [2], the system named is Taf14dYEATS (Saccharomyces cerevisiae). Description: EMSA. Conditions: EMSA: 20-25 mM Tris-HCl pH 7.5, 100-150 mM NaCl, 0.2 mM EDTA (+20% glycerol for NCP), 4 °C 10 min, 0.25 pmol/lane; NMR: 50 mM Tris pH 6.6-7.5, 150 mM NaCl or …. (In general: In EMSA bound probe runs differently from free probe, usually more slowly.)
Data set [3] deals with Taf14dET (Saccharomyces cerevisiae). The data set can be described thus: EMSA. The conditions noted are these: EMSA: 20-25 mM Tris-HCl pH 7.5, 100-150 mM NaCl, 0.2 mM EDTA (+20% glycerol for NCP), 4 °C 10 min, 0.25 pmol/lane; NMR: 50 mM Tris pH 6.6-7.5, 150 mM NaCl or ….
In data set [4] the target is His-Taf14ET (S. cerevisiae) (UniProt P35189). Description: MST; His-tagged Taf14 protein labeled with RED-tris-NTA kept at 20 nM, unlabeled peptide added stepwise; 20 mM Tris-HCl pH 7.5, 150 mM NaCl, 0–0.2 mM TCEP; Monolith NT.115; n = 2 or 3.
Data set [5] deals with T1, Taf14FL (full-length Taf14, aa 1–244) (S. cerevisiae, UniProt P35189 1-244).
T1 construct: Taf14 (transcription initiation factor subunit 14), S. cerevisiae, aa 1–244, a 244-residue protein; In the EMSAs (functional rows) GST-Taf14 or Taf14 proteins were used; source: E. coli Rosetta-2 (DE3) pLysS, purified (SEC for cross-linking; 15N-labeled for NMR)
T1 sequence (looked up): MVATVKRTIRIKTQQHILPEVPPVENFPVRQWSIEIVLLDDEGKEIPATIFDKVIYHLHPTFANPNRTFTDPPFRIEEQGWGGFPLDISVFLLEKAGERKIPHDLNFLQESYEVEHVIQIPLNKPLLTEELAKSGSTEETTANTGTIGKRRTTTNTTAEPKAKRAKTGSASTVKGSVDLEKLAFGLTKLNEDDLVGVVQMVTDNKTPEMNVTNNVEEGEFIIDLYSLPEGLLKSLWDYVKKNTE
The data set can be described thus: NMR titration; 1H,15N HSQC of 0.1–0.3 mM uniformly 15N-labeled Taf14 protein, unlabeled peptide added; 298 K; 50 mM Tris-HCl pH 6.6–7.5, 150 mM NaCl, 0–5 mM DTT or 0.2 mM TCEP, or 1x PBS pH 6.6–7.5. Conditions: both partners purified.

In data set [6] the target is T2, Taf14_(YEATS) (YEATS domain of Taf14, aa 1–137) (S. cerevisiae, UniProt P35189 1-137, uniformly 15N-labeled).
T2 construct: Taf14, S. cerevisiae, YEATS domain, aa 1–137; source: E. coli Rosetta-2 (DE3) pLysS, minimal media with 15NH4Cl, purified
T2 sequence (looked up): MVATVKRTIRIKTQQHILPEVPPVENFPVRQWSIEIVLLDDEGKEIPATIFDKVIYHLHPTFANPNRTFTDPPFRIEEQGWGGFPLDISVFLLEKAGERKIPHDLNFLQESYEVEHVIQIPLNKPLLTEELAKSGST
The description is as above. Conditions: both partners purified.

Data set [7] deals with Taf14FL;Taf2CT (Saccharomyces cerevisiae;Saccharomyces …, UniProt P35189;P23255 1-244;1392-1402, |). Description: EMSA; Taf14:Taf2CT 1:10; augmented vs Taf14FL alone; EMSA: 20-25 mM Tris-HCl pH 7.5, 100-150 mM NaCl, 0.2 mM EDTA (+20% glycerol for NCP), 4 °C 10 min, 0.25 pmol/lane; NMR: 50 mM Tris pH 6.6-7.5, 150 mM NaCl or 1x PBS, 298 K. The conditions noted are these: 15N-labelled for NMR;; 5' overhang 1 nt (extra T on strand 2 as printed).

The target of data set [8] is Taf14FL (Saccharomyces cerevisiae, UniProt P35189 1-244). The data set can be described thus: EMSA; EMSA: 20-25 mM Tris-HCl pH 7.5, 100-150 mM NaCl, 0.2 mM EDTA (+20% glycerol for NCP), 4 °C 10 min, 0.25 pmol/lane; NMR: 50 mM Tris pH 6.6-7.5, 150 mM NaCl or 1x PBS, 298 K. Conditions: protein: recombinant; 15N-labelled for NMR; 5' overhang 1 nt (extra T on strand 2 as printed).

For data set [9], the target named is T3, His-Taf14_(YEATS) (S. cerevisiae, UniProt P35189 1-137).
T3 construct: Taf14, S. cerevisiae, YEATS domain, aa 1–137; Labelled on the His tag with the His-Tag Labeling Kit RED-tris-NTA (2nd Generation) for MST; source: E. coli Rosetta-2 (DE3) pLysS, purified (Ni-NTA, SEC)
T3 sequence (looked up): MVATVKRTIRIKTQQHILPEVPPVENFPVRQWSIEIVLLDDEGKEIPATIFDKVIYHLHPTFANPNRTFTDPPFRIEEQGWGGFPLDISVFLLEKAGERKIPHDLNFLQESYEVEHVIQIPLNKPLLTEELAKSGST
Description: MST; His-tagged Taf14 protein labeled with RED-tris-NTA kept at 20 nM, unlabeled peptide added stepwise; 20 mM Tris-HCl pH 7.5, 150 mM NaCl, 0–0.2 mM TCEP; Monolith NT.115; n = 2 or 3. The conditions noted are these: both partners purified.

Data set [10] concerns the target T4, His-Taf14FL (S. cerevisiae, UniProt P35189 1-244).
T4 construct: Taf14, S. cerevisiae, aa 1–244; Labelled on the His tag with the His-Tag Labeling Kit RED-tris-NTA (2nd Generation) for MST; source: E. coli Rosetta-2 (DE3) pLysS, purified (Ni-NTA, SEC)
T4 sequence (looked up): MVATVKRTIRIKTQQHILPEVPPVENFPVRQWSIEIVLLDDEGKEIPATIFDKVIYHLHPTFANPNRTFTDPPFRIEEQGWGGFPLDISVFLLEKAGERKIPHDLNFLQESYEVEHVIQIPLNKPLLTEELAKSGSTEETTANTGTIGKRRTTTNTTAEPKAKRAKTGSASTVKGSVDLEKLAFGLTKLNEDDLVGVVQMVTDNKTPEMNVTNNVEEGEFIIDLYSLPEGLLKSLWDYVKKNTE
The description is as above. The conditions noted are these: both partners purified.

Chain of FAM-labeled Taf2CT peptide (S. cerevisiae) (P23255 whole entry, looked up, tested part not stated): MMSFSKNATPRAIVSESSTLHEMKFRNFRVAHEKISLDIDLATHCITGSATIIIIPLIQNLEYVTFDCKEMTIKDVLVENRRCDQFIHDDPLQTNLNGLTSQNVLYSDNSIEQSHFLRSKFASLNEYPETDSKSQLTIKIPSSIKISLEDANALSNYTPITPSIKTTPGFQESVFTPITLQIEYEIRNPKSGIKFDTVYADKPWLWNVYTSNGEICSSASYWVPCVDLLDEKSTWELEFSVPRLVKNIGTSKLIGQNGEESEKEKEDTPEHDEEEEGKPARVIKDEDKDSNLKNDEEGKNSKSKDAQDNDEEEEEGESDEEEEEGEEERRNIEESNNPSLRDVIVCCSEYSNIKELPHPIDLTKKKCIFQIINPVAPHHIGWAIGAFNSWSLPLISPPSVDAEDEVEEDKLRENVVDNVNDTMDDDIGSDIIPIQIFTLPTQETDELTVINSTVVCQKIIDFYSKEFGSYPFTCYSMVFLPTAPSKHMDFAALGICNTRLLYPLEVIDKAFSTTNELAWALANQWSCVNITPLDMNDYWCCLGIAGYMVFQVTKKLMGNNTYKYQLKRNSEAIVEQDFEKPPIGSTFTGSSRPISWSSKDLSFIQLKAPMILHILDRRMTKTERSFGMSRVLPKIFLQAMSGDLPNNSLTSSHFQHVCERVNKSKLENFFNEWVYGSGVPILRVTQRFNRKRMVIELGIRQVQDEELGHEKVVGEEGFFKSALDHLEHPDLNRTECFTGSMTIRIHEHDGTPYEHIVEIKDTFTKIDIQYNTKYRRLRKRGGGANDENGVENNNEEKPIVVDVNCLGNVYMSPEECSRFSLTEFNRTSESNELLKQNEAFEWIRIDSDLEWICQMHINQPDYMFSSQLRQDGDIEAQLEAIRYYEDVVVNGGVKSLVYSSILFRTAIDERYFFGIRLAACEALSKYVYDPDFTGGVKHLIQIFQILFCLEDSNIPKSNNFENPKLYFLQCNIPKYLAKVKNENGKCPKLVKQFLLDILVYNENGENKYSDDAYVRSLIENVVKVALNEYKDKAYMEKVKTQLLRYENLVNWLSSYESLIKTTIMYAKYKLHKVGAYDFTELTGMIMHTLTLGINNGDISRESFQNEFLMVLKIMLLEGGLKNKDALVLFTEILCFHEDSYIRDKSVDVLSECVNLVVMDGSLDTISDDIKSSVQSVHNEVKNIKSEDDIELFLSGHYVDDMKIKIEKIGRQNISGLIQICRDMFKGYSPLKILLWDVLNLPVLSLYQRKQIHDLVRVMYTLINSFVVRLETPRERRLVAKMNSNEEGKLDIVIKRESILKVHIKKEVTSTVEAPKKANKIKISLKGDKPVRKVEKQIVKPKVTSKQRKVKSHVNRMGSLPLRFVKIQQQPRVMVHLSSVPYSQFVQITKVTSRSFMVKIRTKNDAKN

In the case of “Taf14ET (ET domain of Taf14, aa 168–243) (from UniProt P35189 168-243) (domain or fragment)”, in data set [1], the Kd (in general, the free concentration of one partner at which half of the binding sites on the other are occupied at equilibrium, for simple one-to-one binding) was 1.6 µM.
Turning to 601 Widom DNA 147 bp, the binding signal (fold tighter than Taf14FL) in [2] and in data set [3] was over 6 throughout.
On to “Taf14_(Linker) peptide (aa 145–169 of Taf14) (from UniProt P35189 145-169)”, for which the dissociation constant (Kd) in data set [4] was 640 µM.

B1: H3K9cr_(1-19) peptide (peptide, UniProt P61830 2-20, looked up)
peptide: ARTKQTARKSTGGKAPRKQ
modifications: crotonyl-lysine at 9
notes: the NMR methods list only H3K9cr_(5-13)
Regarding B1, the binding result in data set [5] is “binds”.

B2: H3K9cr_(5-13) peptide (residues 5–13 of H3) (peptide, UniProt P61830 6-14, looked up)
peptide: QTARK(Crotonyl(E))STGG
notes: also called H3K9cr peptide; source: synthetic peptide (Synpeptide)
As to B2, the binding result in data set [6] is “binds”.

B3: 37 bp non-specific dsDNA (dsDNA)
DNA 1: CGTGTCAGATATATACATCCGATATCAGATCTCGTCA
DNA 2: TTGACGAGATCTGATATCGGATGTATATATCTGACACG
B3: the binding result in data set [7] and in [8] was “binds” throughout.

B4: Taf2CT peptide (aa 1392–1402 of Taf2) (peptide, UniProt P23255 1392-1402, looked up)
peptide: SRSFMVKIRTK
notes: Taf2, subunit of yeast TFIID, C-terminal hxhKh motif-containing tail, aa 1392–1402; also called Taf2 peptide; C-terminal tail of Taf2; source: synthetic peptide (Synpeptide)
Take B4: the results for the Kd in data set [9] and in data set [10] were 6 µM and 0.7 µM, respectively.
